The values that follow come from patent publication US20240034815A1 (Xencor, published 2024).

For assay [1], the target named is cell surface GPC3 on GPC3-expressing cell lines (HepG2 GPC3^high, Huh7 GPC3^med) (UniProt P51654 25-554). In words: cell-based or functional assay.
For assay [2], the target named is T1, His-tagged human GPC3 (human, UniProt P51654 25-559, limits assumed).
T1 construct: Captured on HIS1K sensors in the Octet assay; also called human GPC3 antigen; Glypican 3; not shown: His tag
T1 sequence (P51654 25-559 limits assumed): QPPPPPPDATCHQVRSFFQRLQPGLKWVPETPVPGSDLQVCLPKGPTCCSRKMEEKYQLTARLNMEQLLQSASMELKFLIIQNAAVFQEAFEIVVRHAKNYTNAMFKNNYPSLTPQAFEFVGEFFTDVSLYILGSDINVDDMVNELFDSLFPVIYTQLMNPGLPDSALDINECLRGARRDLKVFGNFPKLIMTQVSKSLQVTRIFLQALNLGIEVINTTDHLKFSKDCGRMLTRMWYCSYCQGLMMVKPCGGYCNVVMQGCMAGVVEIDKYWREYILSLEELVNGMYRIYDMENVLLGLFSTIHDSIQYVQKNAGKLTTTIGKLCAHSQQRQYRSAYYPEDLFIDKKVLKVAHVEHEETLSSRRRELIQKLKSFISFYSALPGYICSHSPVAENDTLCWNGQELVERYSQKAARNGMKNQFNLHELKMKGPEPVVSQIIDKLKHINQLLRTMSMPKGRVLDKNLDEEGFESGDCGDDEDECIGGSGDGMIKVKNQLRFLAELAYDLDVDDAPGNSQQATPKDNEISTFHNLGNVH
The experiment in a line: Octet (BLI); His-tagged GPC3 captured on HIS1K sensors, bsAb in solution. How it is done: (§1) After humanization, GPC3 binding arms were engineered with single point mutations in the variable light domain with the aim to create a ladder of GPC3 binding affinity, illustrative sequences for which are depicted in FIG. 13. 73 variable light domain variants were engineered and paired with GPC3-A H1.1 (see Example 3C for description of GPC3-A H1.1 variant). The GPC3-A variants were engineered in the 1+1 Fab-scFv-Fc bsAb format and binding for GPC3 antigen was measured using Octet, a BioLayer Interferometry (BLI)-based method. Experimental steps for Octet generally include the following: Immobilization (capture of ligand to a biosensor); Association (dipping of ligand-coated biosensors into wells containing the analyte); and Dissociation (returning of biosensors to well containing buffer). For ease of clinical development (e.g. by investigating the therapeutics in model animals), it is useful for the binding domains to be cross-reactive for cynomolgus antigen; therefore, binding to both human and cynomolgus GPC3 antigen were investigated. His-tagged human and cynomolgus GPC3 were captured on HIS1K sensors then dipped into multiple concentrations of the bispecific antibodies. The resulting dissociation constant (KD) are depicted in FIG. 23.
In general terms: BLI is a label-free optical method that tracks binding on a fibre tip over time.

Assay [3] deals with T1, His-tagged human GPC3. In words: affinity label of the GPC3 binding domain; Octet (BLI) of Example 2. How it is done: as §1
For assay [4], the target named is T1, His-tagged human GPC3. In words: binding assay not named for this figure; Octet (BLI) is the method of Example 2B. How it is done: as §1
Assay [5] deals with T2, His-tagged cynomolgus GPC3 (cynomolgus, UniProt A0A2K5VK50 24-558).
T2 construct: Captured on HIS1K sensors in the Octet assay; also called cynomolgus GPC3 antigen; cyno GPC3; not shown: His tag
The description is as above. How it is done:
as §1

In general, Kd refers to a measure of binding affinity in units of concentration. The low end stands for a tighter complex, the high end for a looser complex.

Sequence of cell surface GPC3 on GPC3-expressing cell lines (HepG2 GPC3^high, Huh7 GPC3^med) (P51654 25-554 limits assumed): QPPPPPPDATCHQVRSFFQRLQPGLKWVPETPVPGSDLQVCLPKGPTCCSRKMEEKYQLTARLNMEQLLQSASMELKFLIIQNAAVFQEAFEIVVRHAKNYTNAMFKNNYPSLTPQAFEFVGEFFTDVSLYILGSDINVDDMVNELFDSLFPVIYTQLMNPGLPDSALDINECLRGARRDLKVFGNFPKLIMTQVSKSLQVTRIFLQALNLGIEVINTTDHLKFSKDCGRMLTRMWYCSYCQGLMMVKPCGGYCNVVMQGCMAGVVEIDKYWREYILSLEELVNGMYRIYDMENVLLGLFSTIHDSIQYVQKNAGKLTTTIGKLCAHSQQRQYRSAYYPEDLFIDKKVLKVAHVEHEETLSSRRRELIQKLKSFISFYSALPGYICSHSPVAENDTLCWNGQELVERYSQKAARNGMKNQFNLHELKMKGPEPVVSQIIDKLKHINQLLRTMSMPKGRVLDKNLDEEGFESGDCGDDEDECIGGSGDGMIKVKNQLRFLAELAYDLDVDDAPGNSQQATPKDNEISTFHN

B1: XENP34920 (bispecific antibody)
heavy 1: QVQLVQSGAEVKKPGASVKVSCKASGYTFTDYEMHWVRQAPGQGLEWMGALEPKTGDTAYSQKFQGRVTMTADKSISTAYMELSRLRSDDTAVYYCTRFYSYTYWGQGTLVTVSSASTKGPSVFPLAPSSKSTSGGTAALGCLVKDYFPEPVTVSWNSGALTSGVHTFPAVLQSSGLYSLSSVVTVPSSSLGTQTYICNVNHKPSDTKVDKKVEPKSCDKTHTCPPCPAPPVAGPSVFLFPPKPKDTLMISRTPEVTCVVVDVKHEDPEVKFNWYVDGVEVHNAKTKPREEEYNSTYRVVSVLTVLHQDWLNGKEYKCKVSNKALPAPIEKTISKAKGQPREPQVYTLPPSREEMTKNQVSLTCDVSGFYPSDIAVEWESDGQPENNYKTTPPVLDSDGSFFLYSKLTVDKSRWEQGDVFSCSVMHEALHNHYTQKSLSLSPGK
heavy 2: QVQLVQSGAEVKKPGASVKVSCKASGYTFTDYEMHWVRQAPGQGLEWMGALEPKTGDTAYSQKFQGRVTMTADKSISTAYMELSRLRSDDTAVYYCTRFYSYTYWGQGTLVTVSSASTKGPSVFPLAPSSKSTSGGTAALGCLVKDYFPEPVTVSWNSGALTSGVHTFPAVLQSSGLYSLSSVVTVPSSSLGTQTYICNVNHKPSNTKVDKKVEPKSCGGGGSGGGGSQAVVTQEPSLTVSPGGTVTLTCGSSTGAVTTSNYANWVQQKPGKSPRGLIGGTNKRAPGVPARFSGSLLGGKAALTISGAQPEDEADYYCALWYSNHWVFGGGTKLTVLGKPGSGKPGSGKPGSGKPGSEVQLVESGGGLVQPGGSLRLSCAASGFTFSTYAMNWVRQAPGKGLEWVGRIRSKANNYATYYADSVKGRFTISRDDSKNTLYLQMNSLRAEDTAVYYCVRHGNFGDSYVSWFAYWGQGTLVTVSSGGGGSGGGGSKTHTCPPCPAPPVAGPSVFLFPPKPKDTLMISRTPEVTCVVVDVKHEDPEVKFNWYVDGVEVHNAKTKPREEQYNSTYRVVSVLTVLHQDWLNGKEYKCKVSNKALPAPIEKTISKAKGQPREPQVYTLPPSREQMTKNQVKLTCLVKGFYPSDIAVEWESNGQPENNYKTTPPVLDSDGSFFLYSKLTVDKSRWQQGNVFSCSVMHEALHNHYTQKSLSLSPGK
light: DVVMTQSPLSLPVTLGQPASISCRSSQSLVHSSGNTYLHWYQQRPGQSPRLLIYKVSNRFSGVPDRFSGSGSGTDFTLKISRVEAEDVGVYFCSQSTHVPPTFGSGTKLEIKRTVAAPSVFIFPPSDEQLKSGTASVVCLLNNFYPREAKVQWKVDNALQSGNSQESVTEQDSKDSTYSLSSTLTLSKADYEKHKVYACEVTHQGLSSPVTKSFNRGEC
B1: in assay [1], the “EC50 of RTCC (2D RTCC on Incucyte, HepG2, 10:1 effector:target ratio)” value was under 0.1 µg/mL.

B2: XENP35843 (GPC3-A H1.1_L1.16 formatted as 1+1 Fab-scFv-Fc with CD3 High-Int #1 scFv) (bispecific antibody)
heavy: QVQLVQSGAEVKKPGASVKVSCKASGYTFTDYEMHWVRQAPGQGLEWMGALEPKTGDTAYSQKFQGRVTMTADKSISTAYMELSRLRSDDTAVYYCTRFYSYTYWGQGTLVTVSSASTKGPSVFPLAPSSKSTSGGTAALGCLVKDYFPEPVTVSWNSGALTSGVHTFPAVLQSSGLYSLSSVVTVPSSSLGTQTYICNVNHKPSDTKVDKKVEPKSCDKTHTCPPCPAPPVAGPSVFLFPPKPKDTLMISRTPEVTCVVVDVKHEDPEVKFNWYVDGVEVHNAKTKPREEEYNSTYRVVSVLTVLHQDWLNGKEYKCKVSNKALPAPIEKTISKAKGQPREPQVYTLPPSREEMTKNQVSLTCDVSGFYPSDIAVEWESDGQPENNYKTTPPVLDSDGSFFLYSKLTVDKSRWEQGDVFSCSVMHEALHNHYTQKSLSLSPGK
scFv-Fc: not shown
light: DVVMTQSPLSLPVTLGQPASISCRSSQSLVHSSGNTYLHWYQQRPGQSPRLLIYKVSNRFSGVPDRFSGSGSGTDFTLKISRVEAEDVGVYFCSQSTHVPPTFGSGTKLEIKRTVAAPSVFIFPPSDEQLKSGTASVVCLLNNFYPREAKVQWKVDNALQSGNSQESVTEQDSKDSTYSLSSTLTLSKADYEKHKVYACEVTHQGLSSPVTKSFNRGEC
notes: 1+1 Fab-scFv-Fc, human IgG1 heterodimeric backbone; treated as one molecule; also called [GPC3]H1.1_L1.16
Consider B2, for which, in the assay with His-tagged human GPC3 [2], the Kd came to 100 nM.

B3: GPC3-A H1.1_L1.69 in the 1+1 Fab-scFv-Fc bsAb format (bispecific antibody)
heavy: QVQLVQSGAEVKKPGASVKVSCKASGYTFTDYEMHWVRQAPGQGLEWMGALEPKTGDTAYSQKFQGRVTMTADKSISTAYMELSRLRSDDTAVYYCTRFYSYTYWGQGTLVTVSSASTKGPSVFPLAPSSKSTSGGTAALGCLVKDYFPEPVTVSWNSGALTSGVHTFPAVLQSSGLYSLSSVVTVPSSSLGTQTYICNVNHKPSDTKVDKKVEPKSCDKTHTCPPCPAPPVAGPSVFLFPPKPKDTLMISRTPEVTCVVVDVKHEDPEVKFNWYVDGVEVHNAKTKPREEEYNSTYRVVSVLTVLHQDWLNGKEYKCKVSNKALPAPIEKTISKAKGQPREPQVYTLPPSREEMTKNQVSLTCDVSGFYPSDIAVEWESDGQPENNYKTTPPVLDSDGSFFLYSKLTVDKSRWEQGDVFSCSVMHEALHNHYTQKSLSLSPGK
scFv-Fc: not shown
light: DVVMTQSPLSLPVTLGQPASISCRSSQSLVHSNANTYLHWYQQRPGQSPRLLIYQVSNRFSGVPDRFSGSGSGTDFTLKISRVEAEDVGVYFCSQNTHVPPTFGSGTKLEIKRTVAAPSVFIFPPSDEQLKSGTASVVCLLNNFYPREAKVQWKVDNALQSGNSQESVTEQDSKDSTYSLSSTLTLSKADYEKHKVYACEVTHQGLSSPVTKSFNRGEC
notes: also called [GPC3]H1.1_L1.69
For the molecule B3, the figures for the Kd (with His-tagged human GPC3 [3]; in the assay with His-tagged human GPC3 [4]; in assay [5]) were 70 nM, 150 nM and 150 nM, respectively.

B4: GPC3-A H1.1_L1.73 in the 1+1 Fab-scFv-Fc bsAb format (bispecific antibody)
heavy: QVQLVQSGAEVKKPGASVKVSCKASGYTFTDYEMHWVRQAPGQGLEWMGALEPKTGDTAYSQKFQGRVTMTADKSISTAYMELSRLRSDDTAVYYCTRFYSYTYWGQGTLVTVSSASTKGPSVFPLAPSSKSTSGGTAALGCLVKDYFPEPVTVSWNSGALTSGVHTFPAVLQSSGLYSLSSVVTVPSSSLGTQTYICNVNHKPSDTKVDKKVEPKSCDKTHTCPPCPAPPVAGPSVFLFPPKPKDTLMISRTPEVTCVVVDVKHEDPEVKFNWYVDGVEVHNAKTKPREEEYNSTYRVVSVLTVLHQDWLNGKEYKCKVSNKALPAPIEKTISKAKGQPREPQVYTLPPSREEMTKNQVSLTCDVSGFYPSDIAVEWESDGQPENNYKTTPPVLDSDGSFFLYSKLTVDKSRWEQGDVFSCSVMHEALHNHYTQKSLSLSPGK
scFv-Fc: not shown
light: DVVMTQSPLSLPVTLGQPASISCRSSQSLVHSNKNTYLHWYQQRPGQSPRLLIYYVSNRFSGVPDRFSGSGSGTDFTLKISRVEAEDVGVYFCSQNTHVPPTFGSGTKLEIKRTVAAPSVFIFPPSDEQLKSGTASVVCLLNNFYPREAKVQWKVDNALQSGNSQESVTEQDSKDSTYSLSSTLTLSKADYEKHKVYACEVTHQGLSSPVTKSFNRGEC
notes: also called [GPC3]H1.1_L1.73
On to B4, for which the Kd was determined as 400 nM with His-tagged human GPC3 [3], 477 nM in the assay with His-tagged human GPC3 [4] and 550 nM in assay [5].

B5: GPC3-A H1.1_L1.6 formatted as 1+1 Fab-scFv-Fc with CD3 High-Int #1 scFv (bispecific antibody)
heavy: QVQLVQSGAEVKKPGASVKVSCKASGYTFTDYEMHWVRQAPGQGLEWMGALEPKTGDTAYSQKFQGRVTMTADKSISTAYMELSRLRSDDTAVYYCTRFYSYTYWGQGTLVTVSSASTKGPSVFPLAPSSKSTSGGTAALGCLVKDYFPEPVTVSWNSGALTSGVHTFPAVLQSSGLYSLSSVVTVPSSSLGTQTYICNVNHKPSDTKVDKKVEPKSCDKTHTCPPCPAPPVAGPSVFLFPPKPKDTLMISRTPEVTCVVVDVKHEDPEVKFNWYVDGVEVHNAKTKPREEEYNSTYRVVSVLTVLHQDWLNGKEYKCKVSNKALPAPIEKTISKAKGQPREPQVYTLPPSREEMTKNQVSLTCDVSGFYPSDIAVEWESDGQPENNYKTTPPVLDSDGSFFLYSKLTVDKSRWEQGDVFSCSVMHEALHNHYTQKSLSLSPGK
scFv-Fc: not shown
light: DVVMTQSPLSLPVTLGQPASISCRSSQSLVHSNTNTYLHWYQQRPGQSPRLLIYKVSNRFSGVPDRFSGSGSGTDFTLKISRVEAEDVGVYFCSQNTHVPPTFGSGTKLEIKRTVAAPSVFIFPPSDEQLKSGTASVVCLLNNFYPREAKVQWKVDNALQSGNSQESVTEQDSKDSTYSLSSTLTLSKADYEKHKVYACEVTHQGLSSPVTKSFNRGEC
notes: 1+1 Fab-scFv-Fc: VH-CH1-hinge-CH2-CH3 chain and VL-CL light chain form the GPC3 Fab, plus an scFv-Fc chain; also called [GPC3]H1.1_L1.6
B5 registered a Kd with His-tagged human GPC3 [2] of 4 nM.
